Assays:
[1] = biological target: T1, YejA, periplasmic solute-binding protein of the YejABEF ABC transporter from E. coli (E. coli K12, UniProt P33913 20-604); assay: thermal shift assay (SYPRO orange); 0.5 mg ml^-1 (7.3 µM) YejA, 5x SYPRO orange, 25 µl, 25-96 °C in 1 °C/30 s steps; synthetic peptides added; a shift greater than 3 °C taken as significant; conditions: both partners purified
T1 construct: YejA, E. coli K12, residues 1-585 (Gln1-Glu585) of the mature protein, without the signal peptide; numbers count on: the mature protein; also called EcYejA; recombinant YejA; source: E. coli BL21 (DE3) with pBKA101, purified (HisTrap, HRV 3C cleavage, S200 SEC); not shown: His6, C-terminal, cleaved
T1 sequence (looked up): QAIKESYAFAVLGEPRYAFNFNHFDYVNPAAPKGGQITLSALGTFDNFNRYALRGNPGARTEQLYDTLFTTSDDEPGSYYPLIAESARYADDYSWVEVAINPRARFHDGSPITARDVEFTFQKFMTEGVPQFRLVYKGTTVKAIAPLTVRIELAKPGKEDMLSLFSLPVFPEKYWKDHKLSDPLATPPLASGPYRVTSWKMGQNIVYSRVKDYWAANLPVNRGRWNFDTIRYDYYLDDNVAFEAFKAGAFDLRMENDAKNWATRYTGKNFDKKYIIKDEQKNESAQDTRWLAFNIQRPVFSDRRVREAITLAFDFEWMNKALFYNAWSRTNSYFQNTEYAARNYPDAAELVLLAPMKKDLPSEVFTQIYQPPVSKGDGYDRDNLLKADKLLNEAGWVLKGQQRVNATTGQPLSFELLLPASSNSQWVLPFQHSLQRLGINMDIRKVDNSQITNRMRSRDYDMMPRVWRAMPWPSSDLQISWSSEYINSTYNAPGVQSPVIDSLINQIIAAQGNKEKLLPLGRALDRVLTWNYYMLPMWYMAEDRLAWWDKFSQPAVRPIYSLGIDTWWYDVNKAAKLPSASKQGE

[2] = biological target: T1, YejA, periplasmic solute-binding …; assay: as above; conditions: both partners purified; remark: listed apart in the source

B1: LGEPRYAFNFN (peptide)
peptide: LGEPRYAFNFN
notes: YejA, E. coli, residues 12-22 of the N-terminal segment; numbers count on: the mature protein; also called undecapeptide; 11-mer; source: co-purified and co-crystallised with recombinant YejA (self-derived); synthetic peptide
Q: For B1, which “Tm of YejA with 0.005 mg ml^-1 peptide (60.8 °C without peptide)” value [1] is on record?
A: 62.6 °C

Q: What about the “Tm of YejA with 0.05 mg ml^-1 peptide (60.8 °C without peptide)” value [1] of the same protein?
A: 67.5 °C

Q: And the “melting temp. change with 0.75 mg ml^-1 (0.56 mM) peptide” value [2]?
A: 13 °C

B2: LGEPAYAFNFN (peptide)
peptide: LGEPAYAFNFN
notes: numbers count on: the peptide (Leu1 = residue 12 of mature YejA); source: synthetic peptide
Q: With B2 as the protein, how does the “melting temp. change with 2.5 mg ml^-1 (2.01 mM) peptide” value [2] read?
A: 7 °C

B3: LGEPRWAFNFN (peptide)
peptide: LGEPRWAFNFN
notes: numbers count on: the peptide (Leu1 = residue 12 of mature YejA); also called Trp-containing peptide; Trp6 containing peptide; source: synthetic peptide
Q: B3 was tested. Which “melting temp. change with 2.5 mg ml^-1 (1.85 mM) peptide” value [2] did it give?
A: 22 °C

B4: VLGEPRYAFNF (peptide)
peptide: VLGEPRYAFNF
notes: YejA, E. coli, stretch of the N-terminal segment; numbers count on: the mature protein; source: co-purified with recombinant YejA (self-derived); synthetic peptide
Q: For B4, which “melting temp. change with 2.5 mg ml^-1 (1.9 mM) peptide” value [2] is on record?
A: 22 °C

B5: FAVLGEPRYAFN (peptide)
peptide: FAVLGEPRYAFN
notes: as for B4
Q: For B5, which “melting temp. change with 5 mg ml^-1 (3.61 mM) peptide” value [2] is on record?
A: 19 °C

B6: LGEPRYAFN (peptide)
peptide: LGEPRYAFN
notes: YejA, E. coli, stretch of the N-terminal segment; numbers count on: the mature protein; source: synthetic peptide
Q: How did the “melting temp. change with 1.25 mg ml^-1 (1.17 mM) peptide” value [2] turn out when B6 was run?
A: 17 °C

B7: VLGEPRYAFNFN (peptide)
peptide: VLGEPRYAFNFN
notes: YejA, E. coli, stretch of the N-terminal segment; numbers count on: the mature protein; also called dodecapeptide; 12-mer; source: co-purified with recombinant YejA (self-derived); synthetic peptide
Q: With B7 as the protein, how does the “melting temp. change with 2.5 mg ml^-1 (1.75 mM) peptide” value [2] read?
A: 21 °C

B8: VLGEPRYAFNFNHFD (peptide)
peptide: VLGEPRYAFNFNHFD
notes: YejA, E. coli, stretch of the N-terminal segment; numbers count on: the mature protein; also called 15-mer; source: co-purified with recombinant YejA (self-derived); synthetic peptide
Q: How did the “melting temp. change with 2.5 mg ml^-1 (1.37 mM) peptide” value [2] turn out when B8 was run?
A: 26 °C

B9: GEPRYAFNFN (peptide)
peptide: GEPRYAFNFN
notes: as for B6
Q: B9 was tested. Which “melting temp. change with 2.5 mg ml^-1 (2.06 mM) peptide” value [2] did it give?
A: 14 °C

B10: LGEPRYAFNF (peptide)
peptide: LGEPRYAFNF
notes: as for B6
Q: B10 was tested. Which “melting temp. change with 2.5 mg ml^-1 (2.06 mM) peptide” value [2] did it give?
A: 20 °C

B11: EPRYAFNFN (peptide)
peptide: EPRYAFNFN
notes: as for B6
Q: Which “melting temp. change with 2.5 mg ml^-1 (2.16 mM) peptide” value [2] does the source give for B11 here?
A: 8 °C

Reference: paper PMC10924461, “Structure and ligand binding in the putative anti-microbial peptide transporter protein, YejA” (Microbiology, 2024)
